tested on: Escherichia coli TOP10; experiment: shrunken log2 fold change of peptide-encoding DNA abundance (4.5 h post-induction vs induction); higher = less antimicrobial activity (less host growth inhibition); conditions: time post-induction: 4.5 h; library: site-saturation at positions 5, 18, 19, 20
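Also: peptides expressed intracellularly from a pBAD plasmid library in pooled LB shake-flask culture, induced with 0.3% L-arabinose, DNA abundance read by NGS, three biological replicates, DESeq2 with apeglm shrinkage.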

Row | Sequence | shrunken log2 fold change
1 | RRIRIRPPRLPRPRPRPWFIPRP | -0.243
2 | RRIRKRPPRLPRPRPRPSNSPRP | 0.13
3 | RRIRRRPPRLPRPRPRPKHDPRP | 1.2
4 | RRIRWRPPRLPRPRPRPTCNPRP | 0.0836
5 | RRIRGRPPRLPRPRPRPRWFPRP | 0.355
6 | RRIRHRPPRLPRPRPRPQQPPRP | 0.176
7 | RRIRTRPPRLPRPRPRPLTFPRP | -0.203
8 | RRIRERPPRLPRPRPRPDYFPRP | -0.249
9 | RRIRGRPPRLPRPRPRPTSNPRP | 0.659
10 | RRIRPRPPRLPRPRPRPNQGPRP | -0.55
11 | RRIRFRPPRLPRPRPRPKFMPRP | -0.542
12 | RRIRGRPPRLPRPRPRPWSPPRP | 0.178
13 | RRIRMRPPRLPRPRPRPMYCPRP | -0.0254
14 | RRIRLRPPRLPRPRPRPRLIPRP | 0.123
15 | RRIRLRPPRLPRPRPRPSLQPRP | -0.348
16 | RRIRCRPPRLPRPRPRPFDDPRP | 0.0116
17 | RRIRWRPPRLPRPRPRPLSTPRP | 0.383
18 | RRIRFRPPRLPRPRPRPYQPPRP | -0.269
19 | RRIRDRPPRLPRPRPRPALIPRP | 0.145
20 | RRIRFRPPRLPRPRPRPACNPRP | -0.26
21 | RRIRTRPPRLPRPRPRPWGKPRP | 0.201
22 | RRIRSRPPRLPRPRPRPNIHPRP | 0.829
23 | RRIRFRPPRLPRPRPRPQGQPRP | -0.103
24 | RRIRHRPPRLPRPRPRPCRIPRP | -0.0589
25 | RRIRVRPPRLPRPRPRPVTIPRP | -0.232

Row | Sequence | shrunken log2 fold change
26 | RRIRFRPPRLPRPRPRPILEPRP | -0.133
27 | RRIRPRPPRLPRPRPRPFPHPRP | -0.129
28 | RRIRARPPRLPRPRPRPWQEPRP | -0.0122
29 | RRIRPRPPRLPRPRPRPHQTPRP | -0.0729
30 | RRIRSRPPRLPRPRPRPKTEPRP | -0.0689
31 | RRIRHRPPRLPRPRPRPIDTPRP | -0.291
32 | RRIRMRPPRLPRPRPRPSMWPRP | 0.09
33 | RRIRERPPRLPRPRPRPDPCPRP | -0.119
34 | RRIRTRPPRLPRPRPRPMMAPRP | 0.0689
35 | RRIRTRPPRLPRPRPRPKYWPRP | -0.254
36 | RRIRSRPPRLPRPRPRPNKHPRP | -0.507
37 | RRIRYRPPRLPRPRPRPDEVPRP | 0.000691
38 | RRIRPRPPRLPRPRPRPIAAPRP | 0.621
39 | RRIRDRPPRLPRPRPRPGRVPRP | 0.166
40 | RRIRRRPPRLPRPRPRPSRNPRP | 0.453
41 | RRIRIRPPRLPRPRPRPWIGPRP | -0.0616
42 | RRIRMRPPRLPRPRPRPHKSPRP | 0.223
43 | RRIRHRPPRLPRPRPRPQGVPRP | -0.00445
44 | RRIRTRPPRLPRPRPRPYMNPRP | -0.895
45 | RRIRSRPPRLPRPRPRPQNKPRP | -0.561
46 | RRIRMRPPRLPRPRPRPFDNPRP | 0.0191
47 | RRIRYRPPRLPRPRPRPGMLPRP | -0.139
48 | RRIRARPPRLPRPRPRPTDVPRP | 0.141
49 | RRIRERPPRLPRPRPRPEEWPRP | -0.0919
50 | RRIRVRPPRLPRPRPRPRLRPRP | 0.311

Row | Sequence | shrunken log2 fold change
51 | RRIRCRPPRLPRPRPRPPLLPRP | -0.0189
52 | RRIRFRPPRLPRPRPRPAFPPRP | 0.00578
53 | RRIRGRPPRLPRPRPRPKPVPRP | 0.985
54 | RRIRNRPPRLPRPRPRPESEPRP | 0.0333
55 | RRIRPRPPRLPRPRPRPPIDPRP | 0.216
56 | RRIRIRPPRLPRPRPRPTPQPRP | -0.117
57 | RRIRNRPPRLPRPRPRPQLGPRP | -0.124
58 | RRIRWRPPRLPRPRPRPEATPRP | 1.44
59 | RRIRHRPPRLPRPRPRPADRPRP | -0.0209
60 | RRIRARPPRLPRPRPRPQTKPRP | 0.135
61 | RRIRYRPPRLPRPRPRPCCGPRP | -0.33
62 | RRIRERPPRLPRPRPRPVQPPRP | 0.336
63 | RRIRCRPPRLPRPRPRPAEFPRP | -0.0616
64 | RRIRLRPPRLPRPRPRPRSPPRP | 0.803
65 | RRIRGRPPRLPRPRPRPALEPRP | 1.11
66 | RRIRARPPRLPRPRPRPAQHPRP | 0.326
67 | RRIRTRPPRLPRPRPRPRYTPRP | 0.0216
68 | RRIRLRPPRLPRPRPRPRGKPRP | 0.0746
69 | RRIRLRPPRLPRPRPRPVGDPRP | 0.416
70 | RRIRGRPPRLPRPRPRPNEFPRP | 0.141
71 | RRIRCRPPRLPRPRPRPPLYPRP | 0.429
72 | RRIRIRPPRLPRPRPRPCCEPRP | -0.731
73 | RRIRERPPRLPRPRPRPDWEPRP | 0.368
74 | RRIRARPPRLPRPRPRPEDTPRP | 0.625
75 | RRIRRRPPRLPRPRPRPHLKPRP | -0.0915

Row | Sequence | shrunken log2 fold change
76 | RRIRARPPRLPRPRPRPNNSPRP | -0.483
77 | RRIRGRPPRLPRPRPRPSNQPRP | 0.0776
78 | RRIRWRPPRLPRPRPRPQHCPRP | -0.115
79 | RRIRQRPPRLPRPRPRPYCEPRP | -0.327
80 | RRIRSRPPRLPRPRPRPRRQPRP | 0.681
81 | RRIRIRPPRLPRPRPRPEFYPRP | -0.333
82 | RRIRARPPRLPRPRPRPSTLPRP | 0.111
83 | RRIRWRPPRLPRPRPRPCCFPRP | -0.0922
84 | RRIRPRPPRLPRPRPRPEGGPRP | 0.329
85 | RRIRNRPPRLPRPRPRPYYCPRP | -0.0454
86 | RRIRIRPPRLPRPRPRPPPRPRP | 0.929
87 | RRIRHRPPRLPRPRPRPQWFPRP | -0.0606
88 | RRIRFRPPRLPRPRPRPDDHPRP | -0.139
89 | RRIRYRPPRLPRPRPRPGMFPRP | -0.524
90 | RRIRKRPPRLPRPRPRPEPRPRP | 0.991
91 | RRIRNRPPRLPRPRPRPRNFPRP | -0.132
92 | RRIRPRPPRLPRPRPRPGLWPRP | 0.341
93 | RRIRLRPPRLPRPRPRPEQTPRP | -0.000687
94 | RRIRERPPRLPRPRPRPMCKPRP | -0.373
95 | RRIRERPPRLPRPRPRPKNKPRP | -0.559
96 | RRIRWRPPRLPRPRPRPADCPRP | -0.00218
97 | RRIRMRPPRLPRPRPRPKRVPRP | 0.0291
98 | RRIRVRPPRLPRPRPRPHVNPRP | -0.554
99 | RRIRERPPRLPRPRPRPSTCPRP | -0.324
100 | RRIRQRPPRLPRPRPRPAECPRP | 0.17

Row | Sequence | shrunken log2 fold change
101 | RRIRTRPPRLPRPRPRPHSGPRP | -0.166
102 | RRIRIRPPRLPRPRPRPWYPPRP | -0.238
103 | RRIRARPPRLPRPRPRPQNFPRP | -0.0953
104 | RRIRMRPPRLPRPRPRPVHNPRP | -0.0275
105 | RRIRKRPPRLPRPRPRPHNWPRP | 0.172
106 | RRIRWRPPRLPRPRPRPMWAPRP | 0.385
107 | RRIRYRPPRLPRPRPRPKLVPRP | -0.067
108 | RRIRPRPPRLPRPRPRPDRGPRP | 0.0265
109 | RRIRSRPPRLPRPRPRPHICPRP | -0.127
110 | RRIRCRPPRLPRPRPRPSDHPRP | -0.714
111 | RRIRPRPPRLPRPRPRPPHHPRP | 0.188
112 | RRIRYRPPRLPRPRPRPNVVPRP | -0.274
113 | RRIRQRPPRLPRPRPRPFYLPRP | -0.437
114 | RRIRMRPPRLPRPRPRPFADPRP | 2.11
115 | RRIRPRPPRLPRPRPRPVHWPRP | 0.00332
116 | RRIRSRPPRLPRPRPRPYNWPRP | -0.0406
117 | RRIRCRPPRLPRPRPRPMYVPRP | -0.766
118 | RRIRMRPPRLPRPRPRPTLCPRP | 0.122
119 | RRIRFRPPRLPRPRPRPNVVPRP | -0.046
120 | RRIRYRPPRLPRPRPRPIYKPRP | -0.396
121 | RRIRARPPRLPRPRPRPVVPPRP | 0.496
122 | RRIRERPPRLPRPRPRPIRWPRP | -0.0251
123 | RRIRQRPPRLPRPRPRPEIDPRP | -0.0412
124 | RRIRERPPRLPRPRPRPFKVPRP | 0.14
125 | RRIRDRPPRLPRPRPRPCYMPRP | -0.192

Row | Sequence | shrunken log2 fold change
126 | RRIRERPPRLPRPRPRPVDMPRP | -0.107
127 | RRIRYRPPRLPRPRPRPTQQPRP | -0.00797
128 | RRIRQRPPRLPRPRPRPKGKPRP | -0.155
129 | RRIRWRPPRLPRPRPRPKPTPRP | 0.0876
130 | RRIRMRPPRLPRPRPRPGHNPRP | 0.231
131 | RRIRRRPPRLPRPRPRPPTTPRP | 0.445
132 | RRIRFRPPRLPRPRPRPLFPPRP | -0.23
133 | RRIRLRPPRLPRPRPRPTIRPRP | -0.0201
134 | RRIRTRPPRLPRPRPRPHWWPRP | 0.203
135 | RRIRYRPPRLPRPRPRPMKYPRP | -0.00968
136 | RRIRERPPRLPRPRPRPPCNPRP | -0.392
137 | RRIRWRPPRLPRPRPRPDRHPRP | -0.157
138 | RRIRWRPPRLPRPRPRPNAGPRP | -0.00207
139 | RRIRMRPPRLPRPRPRPLYLPRP | -0.327
140 | RRIRVRPPRLPRPRPRPQHVPRP | -0.0853
141 | RRIRSRPPRLPRPRPRPLNGPRP | -0.322
142 | RRIRLRPPRLPRPRPRPGNHPRP | -0.267
143 | RRIRDRPPRLPRPRPRPTWEPRP | 1.13
144 | RRIRGRPPRLPRPRPRPGFPPRP | 0.691
145 | RRIRPRPPRLPRPRPRPHGMPRP | -0.531
146 | RRIRSRPPRLPRPRPRPQSKPRP | -0.0711
147 | RRIRFRPPRLPRPRPRPNRNPRP | -0.836
148 | RRIRMRPPRLPRPRPRPTNIPRP | -0.0556
149 | RRIRLRPPRLPRPRPRPWSHPRP | 0.00674
150 | RRIRSRPPRLPRPRPRPLSKPRP | -0.0737

Reference: the supplement of paper PMC9112550, “Optimization of the antimicrobial peptide Bac7 by deep mutational scanning” (BMC Biology, 2022)
